{
  "source": "paper PMC9177663",
  "about": "“Substrate-dependent modulation of the leukotriene A4 hydrolase aminopeptidase activity and effect in a murine model of acute lung inflammation” (Scientific Reports, 2022)",
  "molecules": {"B1": {"name": "leukotriene A4 hydrolase (LTA4H) (Homo sapiens) (protein)", "chain": "PEIVDTCSLASPASVCRTKHLHLRCSVDFTRRTLTGTAALTVQSQEDNLRSLVLDTKDLTIEKVVINGQEVKYALGERQSYKGSPMEISLPIALSKNQEIVIEISFETSPKSSALQWLTPEQTSGKEHPYLFSQCQAIHCRAILPCQDTPSVKLTYTAEVSVPKELVALMSAIRDGETPDPEDPSRKIYKFIQKVPIPCYLIALVVGALESRQIGPRTLVWSEKEQVEKSAYEFSETESMLKIAEDLGGPYVWGQYDLLVLPPSFPYGGMENPCLTFVTPTLLAGDKSLSNVIAHEISHSWTGNLVTNKTWDHFWLNEGHTVYLERHICGRLFGEKFRHFNALGGWGELQNSVKTFGETHPFTKLVVDLTDIDPDVAYSSVPYEKGFALLFYLEQLLGGPEIFLGFLKAYVEKFSYKSITTDDWKDFLYSYFKDKVDVLNQVDWNAWLYSPGLPPIKPNYDMTLTNACIALSQRWITAKEDDLNSFNATDLKDLSSHQLNEFLAQTLQRAPLPLGHIKRMQEVYNFNAINNSEIRFRWLRLCIQSKWEDAIPLALKMATEQGRMKFTRPLFKDLAAFDKSHDQAVRTYQEHKASMHPVTAMLVGKDLKVD", "notes": "N-terminal (His)6- and Xpress-tag"}},
  "key": {"[1]": {"target": "T1, leukotriene A4 hydrolase (LTA4H) (Homo sapiens, UniProt P09960)", "T1 construct": "N-terminal (His)6- and Xpress-tag", "T1 sequence (P09960 2-611)": "B1 chain", "test": "X-ray co-crystal structure of ternary LTA4H:4MDM:OPB-Pro complex, […] Å", "assay_type": "binding"}, "[2]": {"substrate": "O=C(Nc1ccc([N+](=O)[O-])cc1)[C@@H]1CCCN1", "test": "Michaelis-Menten hydrolysis kinetics of purified LTA4H at A405 (KM)", "assay_type": "biochemical, Homo sapiens", "settings": "Zn2+ LTA4H AP substrate site"}, "[3]": {"substrate": "C[C@H](N)C(=O)Nc1ccc([N+](=O)[O-])cc1", "test": "Michaelis-Menten hydrolysis kinetics of purified LTA4H at A405 (KM)", "assay_type": "biochemical, Homo sapiens", "settings": "Zn2+ LTA4H AP substrate site"}, "purified protein": {"substrate": "N=C(N)NCCC[C@H](N)C(=O)Nc1ccc([N+](=O)[O-])cc1", "test": "purified protein", "settings": "Zn2+ LTA4H AP substrate site; cannot bind simultaneously with 4MDM"}},
  "data": [
    {"molecule": "O=C(O)[C@@H]1CCCN1C(=O)CCC(=O)N1CCCC1", "note": "[OPB-Pro, N-(4-oxo-4-pyrrolidinyl-butanoyl)-proline]", "values": [
      {"measurement": "X-ray co-crystal structure of ternary LTA4H:4MDM:OPB-Pro complex, 2.8 Å", "setting": "[1]", "result": "The OPB-Pro was bound in the AP active site with its prolyl carbonyl group interacting with the zinc atom."}
    ]},
    {"molecule": "B1", "values": [
      {"measurement": "Km", "setting": "[2]", "result": "840 ± 50", "unit": "µM"},
      {"measurement": "kcat", "setting": "[2]", "result": "0.19 ± 0.01", "unit": "s⁻¹"},
      {"measurement": "kcat/Km", "setting": "[2]", "result": 230, "unit": "M⁻¹ s⁻¹"},
      {"measurement": "Km", "setting": "[3]", "result": "1600 ± 120", "unit": "µM"},
      {"measurement": "kcat", "setting": "[3]", "result": "1.74 ± 0.07", "unit": "s⁻¹"},
      {"measurement": "kcat/Km", "setting": "[3]", "result": 1080, "unit": "M⁻¹ s⁻¹"},
      {"measurement": "Km", "setting": "purified protein", "result": "18790 ± 2730", "unit": "µM"},
      {"measurement": "kcat", "setting": "purified protein", "result": 24.4, "unit": "s⁻¹"},
      {"measurement": "kcat/Km", "setting": "purified protein", "result": 1300, "unit": "M⁻¹ s⁻¹"}
    ]}
  ]
}
